In assay [1] the target is T1, TcICln (truncated Canis familiaris ICln, ICln159X), N-terminal His6-tagged (Canis familiaris, UniProt P35521 1-158).
T1 construct: ICln, Canis familiaris, truncation mutant ICln159X lacking the C-terminal part (stop at position 159); pleckstrin homology domain-like fold; NCBI NP_001003288.1; Uniformly 15N-labelled; The last residue (158) is worked out from the name ICln159X; also called truncated form of cICln; source: E. coli BL21(DE3), purified (IMAC HisTrap, Superdex 75)
T1 sequence (looked up): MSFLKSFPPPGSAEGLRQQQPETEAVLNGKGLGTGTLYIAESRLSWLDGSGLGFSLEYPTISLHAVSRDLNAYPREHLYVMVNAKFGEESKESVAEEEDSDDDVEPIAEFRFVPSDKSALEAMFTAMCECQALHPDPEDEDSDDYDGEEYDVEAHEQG
The assay can be described thus: NMR titration; 1H-15N HSQC of 15N-labelled ICln (0.8 mM) without and with the integrin peptide (equimolar amount for TcICln); 50 mM K2HPO4, pH 6.6, 90% H2O/10% D2O, 25 °C, 800 MHz. To be noted: both partners purified.

Assay [2] has as its target T2, αIIbs-YFP (transmembrane and intracellular portion, amino acids 987-1039, of the human integrin αIIb chain, … (human, UniProt P08514-1 987-1039)).
T2 construct: integrin αIIb chain, human, amino acids 987-1039 (transmembrane and intracellular portion); numbers count on NCBI NP_000410.2; The methods say 'YFP was fused to the Ct of ICln'; also called αIIb-short; αIIb short; source: NIH-3T3 fibroblasts or HEK293 Phoenix cells, transiently transfected (pEYFP-N1), in cells; not shown: YFP, C-terminal, kept
The assay can be described thus: FRET or BRET; acceptor photobleaching; living NIH-3T3 fibroblasts in isotonic solution; CFP donor, YFP acceptor; FRET efficiency in three plasma membrane ROIs of each cell. The note with it: partners not purified. Background: Bioluminescence resonance energy transfer reports proximity on the nanometre scale.

Assay [3] addresses T2, αIIbs-YFP (transmembrane and …). The assay can be described thus: FRET or BRET; acceptor photobleaching; HEK293 Phoenix cells; FRET efficiency in 4-5 plasma membrane ROIs of each cell. The note with it: partners not purified.

T2 sequence (P08514 987-1039): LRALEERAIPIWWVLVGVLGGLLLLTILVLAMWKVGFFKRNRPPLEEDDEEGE

B1: integrin peptide (1018)MWKVGFFKRNR(1028) (peptide)
peptide: MWKVGFFKRNR
notes: integrin αIIb chain, human, residues 1018-1028; numbers count on NCBI NP_000410.2; also called integrin αIIb peptide with the KVGFFKR motif; source: synthetic peptide
Turning to B1, in assay [1], the binding result is reported as “binds”.

B2: CFP-ICln (Canis familiaris ICln, wild type, CFP fused to the N-terminus) (natural protein, UniProt P35521 1-235, looked up)
chain: MSFLKSFPPPGSAEGLRQQQPETEAVLNGKGLGTGTLYIAESRLSWLDGSGLGFSLEYPTISLHAVSRDLNAYPREHLYVMVNAKFGEESKESVAEEEDSDDDVEPIAEFRFVPSDKSALEAMFTAMCECQALHPDPEDEDSDDYDGEEYDVEAHEQGQGDIPTFYTYEEGLSHLTAEGQATLERLEGMLSQSVSSQYNMAGVRTEDSTRDYEDGMEVDTTPTVAGQFEDADVDH
notes: ICln, Canis familiaris (cDNA from the MDCK cell line), ORF of full length ICln; NCBI NP_001003288.1; The same construct was used in two cell lines (NIH-3T3 and HEK293 Phoenix); the assays tell them apart; also called CFP-ICln wt; cICln; source: NIH-3T3 fibroblasts or HEK293 Phoenix cells, transiently transfected (pECFP-C1), in cells; not shown: CFP, N-terminal, kept
As for B2, the “ratio of the FRET efficiency to that of CFP and αIIbs-YFP” value in assay [2] was determined as 2.9; in assay [3], 2.7.

The values are drawn from paper PMC6704128, “Binding of the protein ICln to α-integrin contributes to the activation of ICl_(swell) current” (Scientific Reports, 2019).
